In patent US20040019193A1, “Mob-5/hmob-5 as a cancer diagnostic marker” (priority 2002, published 2004):

Tests used:
mob-5 = experiment: Differential display of Rat-1(ras) cells with or without PD98059; assay type: cell-based; conditions: 10 μM for 24 hours
Method: (B) Identification of mob-5 as a gene activated by oncogenic h-ras but inactivated by MAP kinase inhibitor, PD98059. Total cellular RNA from the normal Rat-1 cells and their oncogenic h-ras transformed derivatives Rat-1(ras) treated with or without 10 μM of PD98059 for 24 hours were compared by differential display. The same primer combination as used in (A) identified the mob-5 (arrow) again as a candidate gene activated by ras but inhibited by ras downstream MAP kinase inhibitor.
RNA purification, automated differential display screening and Northern blot analysis Total RNA from cells were purified using the RNApure reagent following the manufacture instruction (GenHunter Corp., Nashville, Tenn.). DNase I treatment of RNA prior to differential display was carried out using the MessageClean kit (GenHunter Corp., Nashville, Tenn.). Differential display PCR reactions were setup in 96-well PCR plates (Perkin-Elmer) by the Beckman Biomek 2000 automated liquid dispensing workstation using one-base anchored oligo-dT primers and rationally designed arbitrary 13mers (Liang et al., 1994b) from the RNAimage kits (GenHunter Corp., Nashville, Tenn.). The cDNAs were amplified in the presence of ^33P [(α-dATP] (New England Nuclear, Boston, Mass.) using Taq DNA polymerase (Qiagene) and separated on 6 % denaturing polyacrylamide gels (National Diagnostic, Atlanta, Ga.). […]

[1] = system: putative Mob-5 receptor on the cell surface of h-ras transformed Rat-1 cells; experiment: Mob-5-AP receptor binding assay on Rat-1 cells before and after h-ras transformation; conditions: normal versus h-ras transformed Rat-1 cells, media at 0.7 unit/ml
Method: Both the normal and oncogenic h-ras transformed Rat-1 cells were analyzed for the ability to bind Mob-5-AP versus AP alone. The cell surface bound AP activity was measured to reveal a Mob-5 mediated-binding activity present only on the cell surface of the h-ras transformed cells. The result is representative of at least 5 independent experiments.
Identification of a putative receptor(s) of Mob-5 on the cell surface of h-ras transformed cells Another possible mechanism for Mob-5 function is that Mob-5 acts as an autocrine growth factor downstream of activated Ras. Ras transformed RIE cells can be used in a receptor binding assay. APtag technology (Flanagan and leder, 1990) was employed to create a Mob-5-alkaline phosphatase (AP) fusion protein, which can be used as an affinity agent for the receptor analysis. This strategy has been successfully used to identify and clone a number of important cell surface receptors, including those of leptin (Tartaglia et al., 1995) and semaphorin III (He and Tessier-Lavigne, 1997). Like Mob-5 itself, Mob-5-AP was secreted at high levels in 293T cells stably transfected with the recombinant plasmid. The secreted 90 KD Mob-5-AP can be readily detected from the culture media by either the alkaline phosphatase assay or direct Western blot analysis using anti-Mob-5 antibody (FIG. 4A). […]

[2] = system: putative Mob-5 receptor on the cell surface of h-ras transformed RIE cells; experiment: AP fusion protein receptor binding assay on RIE cells before and after h-ras transformation; set-up: species or system rat; conditions: normal versus h-ras transformed RIE cells, media at 0.7 unit/ml
Method: (E) Mob-5-AP, but not hMob-5-AP, binds specifically to the cell surface of oncogenic h-ras transformed RIE cells. Both the normal and oncogenic h-ras transformed RIE cells were analyzed for the ability to bind Mob-5-AP versus AP alone. The same experiment was carried out with hMob-5-AP and AP alone. The cell surface bound AP activity was measured to reveal a species specific Mob-5 binding activity present only on the cell surface of the h-ras transformed RIE cells. The result is representative of at least 3 independent experiments.
As in Rat-1 cells, the putative Mob-5 receptor was also found to be differentially expressed between the normal and h-ras transformed RIE cells using Mob-5-AP fusion protein as a ligand (FIG. 4E, left panel). To determine whether hMob-5-AP could also differentially bind to the cell surface of h-ras transformed RIE cells, the receptor binding assay was conducted using hMob-5-AP in place of Mob-5-AP.
mob-5 expression is activated by both oncogenic h-ras and k-ras in intestinal epithelial cells Cancer arises from the epithelial cells rather than fibroblasts and K-ras mutations have been tightly linked with cancers of gastric intestinal origins (Kiaris and Spandidos, 1995). […] After the final 5 min extension at 72 ° C., the RT-PCR products were analyzed on a 1.5 % agarose gel. […]

Molecule | mob-5 expression (differential display) (mob-5) | cell surface binding (bound AP activity) versus AP alone [1] | cell surface binding (bound AP activity) versus AP alone [2]
COc1cccc(-c2cc(=O)c3ccccc3o2)c1N [PD98059] | inactivated |  | 
Mob-5-AP: rat Mob-5-alkaline phosphatase fusion protein, secreted, 90 KD (SEQ ID NO: 8) (protein) MQTSLRQQILPGLSLILLVLNQVPELQGQEFRFGPCQVTGVVLPELWEAFWTVKNTVKTQDELTSVRLLKPQVLQNVSDAESCYLAHSLLKFYLNTVFKNYHSKIVKFKVLKSFSTLANNFLVIMSKLQPSKDNAMLPISDSARRRFLLYHRTFKQLDIEVALAKAFGEVDILLAWMQNFYQLGSSGIIPVEEENPDFWNREAAEALGAAKKLQPAQTAAKNLIIFLGDGMGVSTVTAARILKGQKKDKLGPEIPLAMDRFPYVALSKTYNVDKHVPDSGATATAYLCGVKGNFQTIGLSAAARFNQCNTTRGNEVISVMNRAKKAGKSVGVVTTTRVQHASPAGTYAHTVNRNWYSDADVPASARQEGCQDIATQLISNMDIDVILGGGRKYMFPMGTPDPEYPDDYSQGGTRLDGKNLVQEWLAKRQGARYVWNRTELMQASLDPSVTHLMGLFEPGDMKYEIHRDSTLDPSLMEMTEAALRLLSRNPRGFFLFVEGGRIDHGHHESRAYRALTETIMFDDAIERAGQLTSEEDTLSLVTADHSHVFSFGGYPLRGSSIFGLAPGKARDRKAYTVLLYGNGPGYVLKDGARPDVTESESGSPEYRQQSAVPLDEETHAGEDVAVFARGPQAHLVHGVQEQTFIAHVMAFAACLEPYTACDLAPPAGTTDAAHPG |  | preferentially bound to the cell surface of the h-ras transformed Rat-1 cells, but not of the parental control | binds specifically only to the ras transformed RIE cells
